The results in this text go back to the nanobody polyreactivity screen of Harvey et al. (2022).

This series can be described thus: yeast display, Sf9 membrane polyspecificity reagent, FACS + sequencing; frameworks hold sequencing errors. In outline: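 Sorting gates, low and high (top ~1%), were placed on anti-HA fluorescence to track expression and on streptavidin fluorescence to track reagent binding. A clone's polyreactivity label is taken from the gate it came out of. The reagent was 10% biotinylated, detergent-solubilized Sf9 membrane, applied for 1 hour at 4 °C to galactose-induced yeast display cells.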
As to “QVQLVESGGGLVQAGGSLRLSCAASGSTINSYAMGWYRQAPGKERELVAAITWIGGNTYYADSVKGRFTISRDNAKNTVYLQMNSLKPEDTAVYYCAADEYFEYYYWGQGTQVTVSS”, the “polyreactivity (PSR sort gate)” value was “low polyreactivity”.
To “QDQLVESGGGLVQAGGSLRLSCAASGRTFSYYTMGWYRQPPGKERELVARISNRGTNTYYADSVKGRFTISRDNAKNTVYLQLNSLKPEDTAVYYCAKYYYPSIVGYDSWGQGTQVTVSS” belongs “low polyreactivity”; to “QVQLVESGGGLVQAGGSLRLSCASSGFTFTYNVMGWYRQAPGKERELVAAISWSGTSTSYADSVKGRFTISRDNAKNTVYLQMNSLNPEDTAVYYCAVQRKSSKRAFRYGYWGQGTQVTVSS”, “high polyreactivity”.
“QVQLVESGGGLDQAGGSLRLSCAASGRTFRHYAMGWYRQAPGKERELVASIRWNGASTNYADSVKGRFTISRDNAKNTVYLQMNSLKPEDTAVYYCAARFGSGFNYWGQGTQVTVSS”: the “polyreactivity (PSR sort gate)” value is listed as “high polyreactivity”.
To “QDQLVESGGGLVQAGGSLRLSCAASGRTFRRYAMGWYRQAPGKERELVAAISASGGSTYYADSVKGRFTISRDNAKNTVYLQMNSLKPEDTAVYYCYALHRAGLFGHYPYESWGQGTQVTVSS” belongs “high polyreactivity”; to “QVQRVESGGGLVQAGGSLRLSSAASGSTFQEYAMGWYSQAPGKERELVASIRWSGGRTYYADSVKGRFTISRDQAKNTVELQMKSLKPEDTAVYYCNKDYYITLHESDGNGGEMDYWGQGTQVTVSS”, “low polyreactivity”; to “QVQLVESGGGLVQAGGSLRISCAASGYTFKNNTMGWYRQAPGKERELVAAISVSGGSTYYADSVKGRFTISRDNAKKTVYLQMNSLKPEDTAVYYCTALREVPLFLVYIGGCYWGQGTQVTVSS”, “low polyreactivity”.
The same measure for “QVQLVESGGGLVQAGGSLRLSCAASGSIFGWYAMGWYRQAPGKEREFVATISRRGGRTYYADSVKGRFTISRDNAKNTVYLQMNSLKPEDTAVYYCAANSVYKEDYWGQGTQVTVSS”: “high polyreactivity”; for “QVQLVESGGGLVQAGGSLRLTCAASGGTFGSYAMGWYRPAPGKERELVAVISSGGSTYYADSVKGRFTISRDNAKNTVYLQMNSLKPEDTAVYYCARRTRTTRGKNGYWGQGTKVTVSS”: “high polyreactivity”; for “QVQLVESGGGLVQAGGSLRLSCAASGLIFTGNVMGWYRQAPGKERELVAAISRSGGRTYYADSVKGRFTISRDNAKNTVYLQMNSLKPEDTAVYYCNKVSPERVYYGSYFRYYYWGQGTQVTVSS”: “high polyreactivity”.
To “QVQLVESGGGLVQAGGSLRLSCAASGRTFLFYAMGWYRQAPGKERELVAAIRRGGSTYYADSVKGRFTISRDNAKNTVYLQMNSLKPEDTAVYYCNAGSALRRSYYRYYYWGQGTQVTVSS” belongs “high polyreactivity”.
“QVQLVESGGGLVQAGGSLRLSCAASGRTLYGNVMGWYRQAPGKERELVAAISRRGGSTSYADSVKGRFTISRDNAKNTVYLQMNSLKPEDTAVYYCAAGRQRYAFKYYYWGQGTQVTVSS”: the “polyreactivity (PSR sort gate)” value is “high polyreactivity”.
The same measure for “QVQLVESGGGLVQAGGSLRVSCAASGSTFSYNAMGWYRQAPGKERELVASINSRGGTTYYADTVKVRFTISRDNAKNTVYLQMKSLKPEDTAVYYCATDVYRLGEYDYWGQGTQVTVSS”: “low polyreactivity”; for “QVQLVESGGGLVQAGGILRLSCAASGFTFVGNAMGWYRKAAGKERELVATITSGGNTKYADSVKGRFTISRDNAKNTVYLQMNSLTPEDTAVYYCAAAKYNYRRFKYWGQGTQVTVSS”: “low polyreactivity”; for “QDQLVESGGGLVQARGSLRLSCAASGRIIKRYVMGWYRQAPGTERELVAAITSGGTNYADSVKGRFTISRDNAKNTVYLQMNSRKPEDTAVYSCAARYLYRAGSNYWGQGTQVTVSS”: “high polyreactivity”.
To “QVQLVESGGGVGQAGGSLRLSCAASGSTFDRYTMGWYRQAPGKERELVAAISISGGSTYYADSVKGRFTISRDNAKNTVYLQMNSLKPEVTEVYYCAARLDTVTDYYYWGQGTQVTVSS” belongs “low polyreactivity”; to “QVQLVESGGGLVQAGGSLRLSCAASGITLRRNAMGWYRQAPGKERELVARISTTGGSTYYADSVKGRFTISRDNAKNTVYLQMNSLKPEDTAVYYCAARAPLGFWHYDYWGQGTQVTVSS”, “high polyreactivity”; to “QVQLVESGGGLVQAGGSLRLSCAASGRIFGVYAMGWYRQAPGKERELVAAIDSSDGSTYYADSVKGRFTISRDNAKNTVYLQMNSLKPEDTAVYYCAADTPAAVYGYDYWGQGTQVTVSS”, “low polyreactivity”.
The same measure for “QVQLVESGGGLVQAGGSLRLSCAASGSSFGTYAMGWYRQAPGKERELVAAISSSVGSTYYADSVKGRFTISRDNATNTVYLQMNSLKPEDTAVYYCAVEQEDFWYPYLYDYWGQGTQVTVSS”: “high polyreactivity”.
“QVQLVESGGGLVQAGGSLRLSCAASGSTYSYYTMGWYIQAPGKERELVATISRRGASTYYADSVKGRFTISRDNAKNTVYLQMNSLKPEDTAVYYCAKSYYYGRSATRPEYDYWGQGTQVTVSS”: the “polyreactivity (PSR sort gate)” value was “high polyreactivity”.
On to “QVQLVESGGGLVQAGGSLRLSCAASGFTFAFYAMGWYRQAPGKERELVAAISWDGVTTYYADSVKGRFTISRDNAKNTVYLQMNSLKPEDTAVYYCNVQWYGGYDYWGQGTQVTVSS”, for which the “polyreactivity (PSR sort gate)” value is “low polyreactivity”.
For the sequence “QVQLVESGGGLVQAGGSLRLSCAASGGTFRYYAMGWYRQAPGKERELVATINWSGGSTYADSVKGRFTISRDNAKNTVYLQMNSLKPEDTAVYYCNAGWWIPVYYWDEWYIYNYWGQGTQVTVSS”, the “polyreactivity (PSR sort gate)” value is on record as “high polyreactivity”.
To “QVQLVESGGGLVQAGGSLRLSCAASGFTFYQYAMGWYRQAPGKERELVAAITRRGGSTSYADSVKGRFTISRDNAKNTVYLQMNSLKPEDTAVYYCAREGSNSGRHGTLFDYWGQGTQVTVSS” belongs “high polyreactivity”; to “QVQLVESGGGLVQAGGSLRLSCAASGSTFVLYAMGWYRQAPGKERELVATITTSGARTHYADSVKGRFTISRDNAKNTVYLQINSLKPEDTAVYYCAAESYWTGYDYGGQGTQVTVSS”, “low polyreactivity”; to “QVQLVESGGGLVQAGGSLRLSCAASGSIFYHNSMGWYRQAPGKERELVAAITSGGSTHYADSVKGRFTISRDNAKNTVYLQMNSLKPEDTAVYYCNARDRRRTNLLDYWGQGTQVTVSS”, “low polyreactivity”.
For the sequence “QVQLVESGGGLVQAGGSLRLSCAACGFIFYINTMGWYRQAPGKERELVAAISQSGVGTSYADSVKGRFTISRDNAKNTVYLQMNSLKPEDTAVYDCATDFARSDVVDRFAYWRQGTQVTVSS”, the “polyreactivity (PSR sort gate)” value is given as “low polyreactivity”.
To “QVQLVESGGGLVQAGGSLSLSCAASGITFDYYAMGWYRQAPGKERELVAAISGRGTSTYYADSVKGRFTLSRDNAKNTVYLQLNSLKPEDTAVYYCAADPAAQREQSFLCRRGPGYDYWGQGTQVTVSS” belongs “low polyreactivity”.
To “QVHLVESGGGLVQAGGSLRLSCAASGRTYIRNAMGWYRQAPGKERELVAAISSRGGRTYYADSVKGRFTISRDNAKNTVYLQMNSLKPEDTAVYYCAADFTYKLDGYDYWGQGTQVTVSS” belongs “high polyreactivity”; to “QVQLVESGGGLVQAGGSLRLSCGATGTTFYYYAMGWYRQAPGKERELVPGINTSGGNTYYADSVKGRFTISRDNAKNTVYLQMNSLKPEDTAVYYCAVEGGSLHYAWYLWGYRSGGEYWGQGTQVTVSS”, “high polyreactivity”; to “QVQLVESGGGLVQAGGSLRLSCAASGSIFRYNAMGWSRQAPGKEREFVAAISYSGGRTYYADSVKGRFTISRDNAKNTVYLQMNSLNPEDTAVYYCNAQYASGRSYFFYWHRYDYWGQGTQVTVSS”, “high polyreactivity”.
To “QVQLVESGGGLVQAGGSLRLSCAASGRIFPFYAMGWYRQAPGKERELVAAITSSGGRTYYADSVKGRFTISRDNAKNTVYLQMNSLKPEDTAVYYCAAGHGGYYRYFSQRDYWGQGTQVTVSS” belongs “low polyreactivity”; to “QVQLVESGGGLVQAGGSLRLSCAASGRIFRKYAMGWYRQAPGKERELVAGITWRGTSTYYADSVKGRFTISRDNAKNTVYLQMNSLKPEDTAVYYCAAEWKGYYVHDYWGQGTQVTVSS”, “high polyreactivity”; to “QVQLVESGGGLVHAGGSLRLSCYATGIILDRYTMGWYRQAPATERELVAAISRSGGITYYADSVKGRFTISRDNAKNTVYLQMNSLKQEDTAVYYCAAKYFDHRQTAYEYWGQGTHVTVSS”, “high polyreactivity”.
For “QVQLVESGGGLVQAGGSLRLSCAASGSTFPYNAMGWYRQAPGKERELVAAITSDDTTNYADSVKGRFTISRDNAKNTVYLQMNSLKPEDTAVYYCAAEYRYPYLRGAGDYWGQGTQVTVSS”, the “polyreactivity (PSR sort gate)” value is given as “low polyreactivity”.
To “QVQLVESGGGLFQAGGSLRLRWAASGNTFRYYVMGWYRQAPGKERELVADINWSGGRTYYADSVKWGFTISRDNAKNTVYFQMNSLKPEDTAVFYCNAARKLYRYSYDYWGQGTQVTLSS” belongs “high polyreactivity”.
Turning to “QVQLVESGGGLVQAGGSLRFSCSASGSIFGYNTMGWYRPAPGKERQLVAAISKSGGSTYYADSVKGRFTISRDNAKNTVYLQMNSLKPEDSAVYYCATYAKQLSPYYYWGQGIQVTVSS”, the “polyreactivity (PSR sort gate)” value is “high polyreactivity”.
Consider “QVQLVESGGGLVQAGGSHRLRCAASGLIIGDYGMGWYRQAPGKERELVAAITDRGGTTYYADSVKGRFTISRDNAKNTVYFQMNSLKPEDTAVYYCIARQSDIFDYDYWGQGSQVTVSS”, for which the “polyreactivity (PSR sort gate)” value was “low polyreactivity”.
For the sequence “QVQLVESGGGLVQAGGSLRLSCAASGLTFRVNDMGWYRQAPGKERELVATISSGGSTYYADSVKGRFTISRDNAKNTVYLQMNSLKPEDTAVYYCATNSEGQESNSYYVWMGYWGQGTHVTVSS”, the “polyreactivity (PSR sort gate)” value was “low polyreactivity”.
As to “QVQLVESGGGLVQAGGSLRLSCAASGRTFSGYAMGWYRQAPGKERELVAVITYSGGSTYYADSVKGRFTISRDNAKNTVYLQMNSLKPEDTAVYYCNADYVIFYQLVEYDYWGQGTQVTVSS”, the “polyreactivity (PSR sort gate)” value is given as “low polyreactivity”.
The same measure for “QVQLVESGGGLVQAGGSLRLSCAASGRTFTYYTMGWYRQAPGKERELVAAITWSGGRTYYADSVKGRFTISRDNAKNTVYLQMNSLKPEDTAVYYCAKPPQGTYDYWGQGTQVTVSS”: “low polyreactivity”.
